From patent publication US20220098328A1, “ANTIBODIES TO M(H)DM2/4 AND THEIR USE IN DIAGNOSING AND TREATING CANCER” (NomoCan Pharmaceuticals LLC, priority 2017, published 2022)

Legend:
[1] = test system: human pancreatic cancer MIAPaCa-2 cells; assay: Complement-dependent cytotoxicity with normal human serum (PI staining); assay type: cell-based; conditions: antibody 30 μg/ml, NHS 1:10, 2 hours
Protocol: Methodology used: Cells seeded in 24-well dishes were grown overnight at 37° C. in a humidified atmosphere supplied with 5% CO2-95% air mixture. The following day the cells were thoroughly washed with ice-cold PBS and incubated with HDM2-specific mAb NMC-103 diluted in culture medium containing 1% BSA to a final antibody concentration of 30 μg/ml. After 30 min, NHS was added to the cells at a final concentration of 1:10 in the culture medium with 1% BSA together with 1% propidium iodide (PI) solution. Cells were then incubated with NHS for 2 hours and images were taken using EVOS FL fluorescent microscope (Life Technologies).
Methodology used: Cells seeded in 24-well dishes were grown over night at 37° C. in a humidified atmosphere supplied with 5% CO2-95% air mixture. The following day the cells were thoroughly washed with ice-cold PBS and incubated with various HDM2-specific antibodies (i.e., OP145, N-20 and C-18 antibodies; see description of the antibodies in Table 10) or control antibodies (directed to the intra-cellular protein Cytochrome C) diluted in culture medium containing 1% BSA to a final antibody concentration of 5-10 ug/ml. After 30 min, NHS was added to the cells to make a final concentration of at 1:30 in the culture medium with 1% BSA together with 1% propidium iodide (PI) solution. […]

[2] = test system: HeLa cervical cancer cells; assay: Cell-ELISA on intact cells; assay type: cell-based, human; conditions: mAb 5 μg/mL
Protocol: In a 96-well microplate, 15,000 cells/well were cultured overnight. The next day, unbound cells were washed off with sterile 1×PBS. The cells in each well were fixed with freshly prepared 4% buffered paraformaldehyde (pH 7.2) for 1 hour, followed by 3 washes with 1×PBS. The wells were then blocked with 5% BSA in PBS (100 μl/well) for 2 hours at room temperature. Microplate wells were then washed 5 times with 300 μl of ice cold 1×PBS. Monoclonal antibodies NMC-H103 (VH4/VK3) or NMC-C303 at 5 μg/mL in 1% BSA/PBS were then incubated with various cancer cells for 2 hours at room temperature. Wells were then washed with 300 μl of ice-cold 1×PBS for 5 times and corresponding secondary antibody HRP-GaH F(ab′)2 diluted 1:2000 or 1:4000 in PBS with 1% BSA were added at 100 μl/well for 1 hour at room temperature followed by washing 5 times with 300 μl of ice-cold 1×PBS. TMB Substrate Solution (1-Step™ Ultra TMB-ELISA, ThermoFisher, Cat. No. 34028) was then added at 50 μL to each microplate well and incubated at room temperature for 30 minutes. The reaction was stopped by addition of 50 μL of stop solution (ThermoFisher, Cat. No. SS04) to each well and absorbance of each well was measured at OD450 nm. The absorbance value of each experimental well was corrected for the absorbance value obtained from wells treated with isotype-identical mAbs included in each experiment.

[3] = test system: mouse Lewis Lung cancer LL/2 cells; assay: LL/2 syngeneic mouse model of lung cancer; assay type: in vivo; conditions: LL/2 s.c. in C57BL/6 mice; 0.4 mg/kg i.p. 3 times a week for 3 weeks, started with tumor cell inoculation; by day 21
Protocol: Methodology used (Syngeneic Mouse Models of lung, colon and pancreatic cancer): To investigate the anti-tumor effects of HDM2-specific antibodies on lung, colon and pancreatic tumors in vivo, three well-known syngeneic mouse models of lung, colon and pancreatic cancer were used (Sharma et al., 1999, J. Immunol. 163 (9):5020-5028; McIntyre, 2015, Bioassays 37(8):909-920; Li, et al., 2015, Sci. Rep. 5:7856). Subcutaneous tumors were prepared by implanting either mouse Lewis Lung cancer LL/2 cells (2.5×10^5 cells/mouse), mouse colon cancer MC-38 cells (5×10^5 cells/mouse) or mouse pancreatic cancer Panc-2 cells (2×10^6 cells/mouse) in the right flanks of 8-week-old female C57BL/6 mice (n=6-7). The mice were returned to their respective cages after tumor implantation. From day 7 after tumor implantation, the tumor volumes were measured 2 times/week with a digital caliper. In the case of MC-38 and Panc-2 study, treatment started when the tumors reached an average of 70-80 mm^3. In the case of LL/2 study, tumor cell inoculation and treatment were initiated simultaneously. Mice were micro-chipped and registered following tumor implantation. […]

B1: NMC-103: mouse monoclonal antibody of the IgG1 isotype that binds to NMC-P1 (SEQ ID NO:1); VH SEQ ID NO:36, VL SEQ ID NO:37 (antibody, V domains shown)
VH: EVQLQESGGGLVQPGGSLRLSCTTSGFTFTHYYMSWVRQPPGKALEWLGFIRNKAKGYTAEYSASVKGRFTISRDNSQSILYLQMNTLRPEDSATYYCARDIGDNWGQGTLVTVSS
VL: DIVMTQAAFSNPVTLGTSASISCRSSKNLLHSNGITYLYWYLQRPGQSPQLLISRVSNLASGVPNRFSGSESGTDFTLRISRVEAEDVGVYFCAQLLELPYTFGGGTKLEIK
modifications: mAb NMC-103 Heavy Chain Variable Region; mAb NMC-103 Light Chain Variable Region
complement-mediated cytotoxicity (PI uptake) [1]: triggered complement-mediated cytotoxicity

B2: NMC-H103 (VH4/VK3): humanized NMC-103 variant, human IgG1, VH4 (SEQ ID NO:299) and VK3 (SEQ ID NO:297) (antibody, V domains shown)
VH: EVQLVESGGGLVQPGPSLRLSCTTSGFTFTHYYMSWVRQAPGKGLEWLGFIRNKAKGYTAEYSASVKGRFTISRDNSKSTLYLQMNSLRAEDTAVYYCARDIGDNWGQGTLVTVSS
VL: DIVMTQTPLSSPVTLGQPASISCRSSKNLLHSNGITYLYWYLQKPGQSPQLLISRVSNLASGVPDRFSGSESGTDFTLKISRVEAEDVGVYFCAQLLELPYTFGGGTKVEIK
modifications: human IgG1 constant regions lacking entries; mAb NMC-H103.VH4Heavy Chain Variable Region; mAb NMC-H103.VK3Light Chain Variable Region
binding to intact, un-permeabilized cells, cell-based ELISA [2]: binding

B3: NMC-204: mouse monoclonal antibody of the IgG3 isotype that binds to NMC-P2 (SEQ ID NO:2); VH SEQ ID NO:38, VL SEQ ID NO:39 (antibody, V domains shown)
VH: EVQLQESGSVLVRPGASVKLSCKASGDTLSGSWMHWAMQRPGQGLEWIGEIHLNRGTTNYNEKFKGKATVTVDTSSSTAYVDLSSLTSEDSAVYYCARSPGFAYWGQGTLVTVSA
VL: GIVMTQAAPSVPVTPGESVSISCRSSKSLLHSNGNSYLYWFLQRPGQSPQLLIYRMSNLASGVPDRFSGSGSGTAFTLRITRVEAEDVGVYYCMQHLEYPFTFGSGTKLEIK
modifications: mAb NMC-204 Heavy Chain Variable Region; mAb NMC-204 Light Chain Variable Region
tumor volume [3]: 1446 mm^3
